For one data set, the target named is T1, hLGP2 (Homo sapiens, UniProt Q96C10).
T1 construct: gene DHX58; construct not described in main text
T1 sequence (Q96C10 1-678): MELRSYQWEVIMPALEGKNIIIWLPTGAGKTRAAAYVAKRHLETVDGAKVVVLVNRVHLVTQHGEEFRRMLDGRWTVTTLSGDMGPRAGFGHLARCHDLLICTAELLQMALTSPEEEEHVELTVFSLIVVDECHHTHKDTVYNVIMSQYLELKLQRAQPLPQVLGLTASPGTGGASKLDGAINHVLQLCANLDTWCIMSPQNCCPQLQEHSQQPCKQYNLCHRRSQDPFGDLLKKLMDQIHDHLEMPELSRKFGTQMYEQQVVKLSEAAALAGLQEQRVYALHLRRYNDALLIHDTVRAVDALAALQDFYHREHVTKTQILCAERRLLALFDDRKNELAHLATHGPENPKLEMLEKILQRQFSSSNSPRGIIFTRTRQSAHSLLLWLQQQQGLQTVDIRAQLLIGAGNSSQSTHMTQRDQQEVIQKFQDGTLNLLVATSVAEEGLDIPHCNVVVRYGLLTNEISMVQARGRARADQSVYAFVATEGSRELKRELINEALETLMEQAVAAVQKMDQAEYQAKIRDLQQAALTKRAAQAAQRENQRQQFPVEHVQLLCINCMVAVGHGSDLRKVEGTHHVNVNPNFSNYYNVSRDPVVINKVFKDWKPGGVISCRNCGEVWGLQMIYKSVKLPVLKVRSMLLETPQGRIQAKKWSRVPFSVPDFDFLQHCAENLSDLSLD
Nature of the data set: malachite green ATPase assay. It counts as biochemical. As to conditions: dsRNA-dependent.

Data set [1] addresses T2, chLGP2 (chicken, UniProt G0YYQ5 1-674).
T2 sequence: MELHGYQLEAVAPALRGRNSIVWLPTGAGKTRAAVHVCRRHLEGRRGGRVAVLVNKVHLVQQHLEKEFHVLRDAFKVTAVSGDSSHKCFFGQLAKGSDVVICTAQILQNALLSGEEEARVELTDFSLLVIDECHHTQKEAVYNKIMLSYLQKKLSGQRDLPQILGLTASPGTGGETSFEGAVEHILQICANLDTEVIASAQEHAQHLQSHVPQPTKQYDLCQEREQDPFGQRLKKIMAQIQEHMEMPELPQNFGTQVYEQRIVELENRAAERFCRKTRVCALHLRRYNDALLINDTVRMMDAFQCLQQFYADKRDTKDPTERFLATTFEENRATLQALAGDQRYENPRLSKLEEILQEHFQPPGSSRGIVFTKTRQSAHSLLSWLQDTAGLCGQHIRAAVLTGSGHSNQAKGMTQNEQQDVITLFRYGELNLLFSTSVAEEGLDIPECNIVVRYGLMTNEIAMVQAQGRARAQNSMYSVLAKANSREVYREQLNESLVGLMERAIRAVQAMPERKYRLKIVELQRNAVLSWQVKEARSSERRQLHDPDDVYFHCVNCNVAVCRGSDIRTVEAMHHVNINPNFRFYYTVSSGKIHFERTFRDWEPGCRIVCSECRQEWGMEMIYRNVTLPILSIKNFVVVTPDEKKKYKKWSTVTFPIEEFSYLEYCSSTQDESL
Nature of the data set: fluorescence anisotropy; same affinity as 5'OH; Fluorescence anisotropy: 5'-FAM 12-mer annealed to unlabeled complement, protein titrated, ex 495 / em 515 nm, fit with Hill coefficient (n=1 for RIG-I); buffer, salt, pH and temperature not in the material. Particulars: protein: recombinant; tags: SUMO fusion; label: 5'-FAM on one strand; blunt. In general terms: Polarisation of emitted light reports the rotation of a fluorescent probe.

The next data set concerns the target T3, hRIG-I (human, UniProt O95786 1-925).
T3 sequence: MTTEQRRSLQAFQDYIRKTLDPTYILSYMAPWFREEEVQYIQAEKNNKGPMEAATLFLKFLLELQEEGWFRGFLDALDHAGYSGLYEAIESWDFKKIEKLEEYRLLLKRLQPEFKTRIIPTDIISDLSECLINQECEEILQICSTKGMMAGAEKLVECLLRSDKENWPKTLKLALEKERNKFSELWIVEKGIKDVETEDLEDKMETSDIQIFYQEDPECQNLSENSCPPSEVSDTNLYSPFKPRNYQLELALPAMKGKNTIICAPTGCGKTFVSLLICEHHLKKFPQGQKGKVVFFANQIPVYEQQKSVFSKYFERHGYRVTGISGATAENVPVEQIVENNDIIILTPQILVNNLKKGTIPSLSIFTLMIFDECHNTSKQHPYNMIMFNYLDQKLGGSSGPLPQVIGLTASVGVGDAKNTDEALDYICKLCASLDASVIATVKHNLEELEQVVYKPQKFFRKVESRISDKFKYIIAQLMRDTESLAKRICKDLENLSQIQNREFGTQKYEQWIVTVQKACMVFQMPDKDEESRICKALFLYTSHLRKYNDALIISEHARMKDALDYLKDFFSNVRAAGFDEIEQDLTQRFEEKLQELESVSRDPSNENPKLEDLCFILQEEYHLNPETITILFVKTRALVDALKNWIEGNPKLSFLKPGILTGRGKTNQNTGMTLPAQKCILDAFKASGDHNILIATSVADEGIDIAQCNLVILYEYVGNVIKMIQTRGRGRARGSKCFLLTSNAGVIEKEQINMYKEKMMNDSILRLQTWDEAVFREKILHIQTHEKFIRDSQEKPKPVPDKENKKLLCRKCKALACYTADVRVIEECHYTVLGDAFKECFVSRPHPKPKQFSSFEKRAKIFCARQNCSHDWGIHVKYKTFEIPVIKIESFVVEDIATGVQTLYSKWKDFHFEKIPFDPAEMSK
Nature of the data set: fluorescence anisotropy; ADP:AlF4; Fluorescence anisotropy: 5'-FAM 12-mer annealed to unlabeled complement, protein titrated, ex 495 / em 515 nm, fit with Hill coefficient (n=1 for RIG-I); buffer, salt, pH and temperature not in the material. As to conditions: protein: recombinant; label: 5'-FAM on one strand; blunt.

Data set [2] addresses T2, chLGP2. Nature of the data set: fluorescence anisotropy; Fluorescence anisotropy: 5'-FAM 12-mer annealed to unlabeled complement, protein titrated, ex 495 / em 515 nm, fit with Hill coefficient (n=1 for RIG-I); buffer, salt, pH and temperature not in the material. Particulars: protein: recombinant; tags: SUMO fusion; label: 5'-FAM on one strand; 5' overhang.
Data set [3] concerns the target T2, chLGP2. Nature of the data set: crystal structure; ADP:AlF4, Mg2+; Fluorescence anisotropy: 5'-FAM 12-mer annealed to unlabeled complement, protein titrated, ex 495 / em 515 nm, fit with Hill coefficient (n=1 for RIG-I); buffer, salt, pH and temperature not in the material. Particulars: protein: recombinant, tags: SUMO fusion.
Data set [4] has as its target T2, chLGP2. Nature of the data set: fluorescence anisotropy; affinity independent of bound nucleotide; Fluorescence anisotropy: 5'-FAM 12-mer annealed to unlabeled complement, protein titrated, ex 495 / em 515 nm, fit with Hill coefficient (n=1 for RIG-I); buffer, salt, pH and temperature not in the material. As to conditions: protein: recombinant; tags: SUMO fusion; label: 5'-FAM on one strand; blunt.

The target of data set [5] is T2, chLGP2. Nature of the data set: crystal structure; no nucleotide; Fluorescence anisotropy: 5'-FAM 12-mer annealed to unlabeled complement, protein titrated, ex 495 / em 515 nm, fit with Hill coefficient (n=1 for RIG-I); buffer, salt, pH and temperature not in the material. As to conditions: protein: recombinant; tags: SUMO fusion; 2 copies of self-complementary strand.

[6] abbreviates: blunt, 2 copies of self-complementary strand.

From article PMC4885022, “Structural Analysis of dsRNA Binding to Anti-viral Pattern Recognition Receptors LGP2 and MDA5” (Molecular Cell, 2016) come the findings set out here.

`Nc1ncnc2c1ncn2[C@@H]1O[C@H](COP(=O)(O)OP(=O)(O)OP(=O)(O)O)[C@@H](O)[C@H]1O` [ATP]: the “malachite green ATPase assay” value on hLGP2 is “both chLGP2 and hLGP2 ATPase activity is strictly dsRNA dependent”.

B1: 5'ppp 12-mer blunt dsRNA (anisotropy) (dsRNA)
RNA 1: GGGCUCCACAUG
RNA 2: CAUGUGGAGCCC
modifications: 5' triphosphate
For orientation: Kd means the equilibrium constant for the complex coming apart. Turning to B1, the binding result in the data set with chLGP2 [1] is “binds”. Besides, the Kd in the data set with hRIG-I is roughly 1 nM.

B2: 5' overhang dsRNA (anisotropy) (dsRNA)
RNA 1: AACCGGUCACGC
RNA 2: AAGCGUGACCGG
Turning to B2, the binding signal in the data set with chLGP2 [2] was ~2 fold lower affinity than blunt end.

B3: 5'p 10-mer palindromic dsRNA (dsRNA)
RNA 1: GGUACGUACC
RNA 2: GGUACGUACC
modifications: 5' monophosphate
On to B3, for which the binding result with chLGP2 [3] (setting [6]) was “binds”.

B4: 5'OH 12-mer blunt dsRNA (anisotropy) (dsRNA)
RNA 1: GGGCUCCACAUG
RNA 2: CAUGUGGAGCCC
In the case of B4, in the data set with chLGP2 [4], the binding result is listed as “binds”.

B5: 5'ppp 10-mer palindromic dsRNA (dsRNA)
RNA 1: GGUACGUACC
RNA 2: GGUACGUACC
modifications: 5' triphosphate
In the case of B5, the binding result with chLGP2 [3] (setting [6]) is “binds”.

B6: 5'p 12-mer palindromic dsRNA (dsRNA)
RNA 1: GGUAGCGCUACC
RNA 2: GGUAGCGCUACC
modifications: 5' monophosphate
Regarding B6, the binding result in the data set with chLGP2 [5] is “binds”. As for GGAGCGUGCCGUACGGCACGCUCCGG (structured_RNA, 5' triphosphate) [5'ppp 26-mer hairpin with 3' GG overhang], the binding result with chLGP2 [3] (hairpin, 3' overhang 2 nt (GG)) is “binds”.
